Assay results: publication PMC2409435 (Nature, 2007)

Biological target: Recombinant MRE11-RAD50-NBS1 (MRN) complex (human | , UniProt P49959 1-708; Q92878 1-1312; O60934 1-754)
Experiment: co-IP

Chain of Recombinant MRE11-RAD50-NBS1 (MRN) complex (P49959 whole entry, chain 1 of 3): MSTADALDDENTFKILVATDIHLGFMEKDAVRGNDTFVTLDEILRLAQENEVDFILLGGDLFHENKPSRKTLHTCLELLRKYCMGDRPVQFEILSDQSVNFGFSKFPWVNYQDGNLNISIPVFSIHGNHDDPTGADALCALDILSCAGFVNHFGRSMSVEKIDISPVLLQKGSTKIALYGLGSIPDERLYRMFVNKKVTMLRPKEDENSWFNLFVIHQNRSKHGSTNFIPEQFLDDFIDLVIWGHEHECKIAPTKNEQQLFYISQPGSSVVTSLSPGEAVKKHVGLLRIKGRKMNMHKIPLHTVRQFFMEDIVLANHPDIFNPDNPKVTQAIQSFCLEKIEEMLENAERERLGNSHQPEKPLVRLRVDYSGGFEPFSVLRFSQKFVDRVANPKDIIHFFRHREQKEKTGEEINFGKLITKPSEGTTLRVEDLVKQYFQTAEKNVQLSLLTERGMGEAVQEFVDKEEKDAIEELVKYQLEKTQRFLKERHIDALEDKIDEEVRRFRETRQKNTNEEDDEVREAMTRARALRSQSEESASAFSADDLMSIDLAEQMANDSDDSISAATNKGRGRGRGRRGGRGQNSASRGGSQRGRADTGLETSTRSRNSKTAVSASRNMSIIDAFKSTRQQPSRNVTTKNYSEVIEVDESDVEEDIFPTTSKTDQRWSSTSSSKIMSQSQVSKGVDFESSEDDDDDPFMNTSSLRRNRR
Chain of Recombinant MRE11-RAD50-NBS1 (MRN) complex (Q92878 whole entry, chain 2 of 3): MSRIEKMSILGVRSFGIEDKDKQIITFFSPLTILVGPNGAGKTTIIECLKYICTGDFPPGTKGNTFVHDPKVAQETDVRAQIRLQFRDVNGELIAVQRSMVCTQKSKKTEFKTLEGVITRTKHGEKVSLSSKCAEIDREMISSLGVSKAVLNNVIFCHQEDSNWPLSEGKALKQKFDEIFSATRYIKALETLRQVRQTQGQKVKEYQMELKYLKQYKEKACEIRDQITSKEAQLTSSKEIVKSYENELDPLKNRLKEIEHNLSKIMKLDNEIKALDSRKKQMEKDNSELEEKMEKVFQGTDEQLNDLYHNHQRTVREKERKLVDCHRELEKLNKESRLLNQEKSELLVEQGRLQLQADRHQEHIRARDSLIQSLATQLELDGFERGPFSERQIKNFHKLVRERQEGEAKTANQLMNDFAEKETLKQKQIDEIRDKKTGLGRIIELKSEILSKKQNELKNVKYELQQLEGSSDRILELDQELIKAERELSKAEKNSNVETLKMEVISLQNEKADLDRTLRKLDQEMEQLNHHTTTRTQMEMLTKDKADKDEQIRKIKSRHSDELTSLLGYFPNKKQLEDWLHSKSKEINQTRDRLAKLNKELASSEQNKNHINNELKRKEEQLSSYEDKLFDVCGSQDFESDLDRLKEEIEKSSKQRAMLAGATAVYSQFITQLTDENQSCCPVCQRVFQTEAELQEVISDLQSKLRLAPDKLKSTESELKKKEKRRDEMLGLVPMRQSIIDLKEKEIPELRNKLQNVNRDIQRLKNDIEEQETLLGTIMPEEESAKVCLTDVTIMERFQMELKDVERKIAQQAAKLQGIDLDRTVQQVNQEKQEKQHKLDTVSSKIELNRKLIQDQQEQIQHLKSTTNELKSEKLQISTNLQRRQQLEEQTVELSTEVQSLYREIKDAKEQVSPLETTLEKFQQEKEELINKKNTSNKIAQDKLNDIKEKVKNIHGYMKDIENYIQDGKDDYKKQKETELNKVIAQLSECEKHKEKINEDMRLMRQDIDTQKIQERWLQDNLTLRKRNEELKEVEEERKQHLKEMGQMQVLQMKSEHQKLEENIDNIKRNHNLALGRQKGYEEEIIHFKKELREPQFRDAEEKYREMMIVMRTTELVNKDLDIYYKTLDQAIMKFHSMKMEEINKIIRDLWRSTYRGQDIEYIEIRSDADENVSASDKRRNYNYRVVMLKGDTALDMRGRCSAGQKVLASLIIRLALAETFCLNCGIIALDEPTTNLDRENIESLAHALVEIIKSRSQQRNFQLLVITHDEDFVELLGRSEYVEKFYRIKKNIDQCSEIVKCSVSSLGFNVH
Chain of Recombinant MRE11-RAD50-NBS1 (MRN) complex (O60934 whole entry, chain 3 of 3): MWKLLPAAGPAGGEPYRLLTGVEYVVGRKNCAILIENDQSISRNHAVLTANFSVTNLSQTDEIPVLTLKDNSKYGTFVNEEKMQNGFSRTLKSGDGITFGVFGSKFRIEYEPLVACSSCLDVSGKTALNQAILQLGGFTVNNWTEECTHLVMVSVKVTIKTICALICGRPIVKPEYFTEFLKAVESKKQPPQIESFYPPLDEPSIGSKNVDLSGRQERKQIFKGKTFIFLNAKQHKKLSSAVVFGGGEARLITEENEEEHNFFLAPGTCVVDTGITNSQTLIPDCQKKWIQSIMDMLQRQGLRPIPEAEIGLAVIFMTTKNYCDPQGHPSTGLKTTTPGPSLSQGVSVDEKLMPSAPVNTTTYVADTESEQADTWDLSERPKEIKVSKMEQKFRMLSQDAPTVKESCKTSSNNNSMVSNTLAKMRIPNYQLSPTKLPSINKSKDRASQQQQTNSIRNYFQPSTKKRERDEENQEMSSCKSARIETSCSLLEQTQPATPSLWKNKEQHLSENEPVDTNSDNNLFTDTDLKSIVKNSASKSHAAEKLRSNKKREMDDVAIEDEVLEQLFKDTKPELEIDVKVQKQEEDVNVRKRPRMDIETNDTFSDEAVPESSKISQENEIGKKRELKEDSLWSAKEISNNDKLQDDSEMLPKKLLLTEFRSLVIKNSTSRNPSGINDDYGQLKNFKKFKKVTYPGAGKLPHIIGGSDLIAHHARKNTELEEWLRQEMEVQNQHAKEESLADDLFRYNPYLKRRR

- binding result: binds
B1: Recombinant FLAG-GST-CtIP-6H (natural protein, human, UniProt Q99708 1-897, looked up)
chain: MNISGSSCGSPNSADTSSDFKDLWTKLKECHDREVQGLQVKVTKLKQERILDAQRLEEFFTKNQQLREQQKVLHETIKVLEDRLRAGLCDRCAVTEEHMRKKQQEFENIRQQNLKLITELMNERNTLQEENKKLSEQLQQKIENDQQHQAAELECEEDVIPDSPITAFSFSGVNRLRRKENPHVRYIEQTHTKLEHSVCANEMRKVSKSSTHPQHNPNENEILVADTYDQSQSPMAKAHGTSSYTPDKSSFNLATVVAETLGLGVQEESETQGPMSPLGDELYHCLEGNHKKQPFEESTRNTEDSLRFSDSTSKTPPQEELPTRVSSPVFGATSSIKSGLDLNTSLSPSLLQPGKKKHLKTLPFSNTCISRLEKTRSKSEDSALFTHHSLGSEVNKIIIQSSNKQILINKNISESLGEQNRTEYGKDSNTDKHLEPLKSLGGRTSKRKKTEEESEHEVSCPQASFDKENAFPFPMDNQFSMNGDCVMDKPLDLSDRFSAIQRQEKSQGSETSKNKFRQVTLYEALKTIPKGFSSSRKASDGNCTLPKDSPGEPCSQECIILQPLNKCSPDNKPSLQIKEENAVFKIPLRPRESLETENVLDDIKSAGSHEPIKIQTRSDHGGCELASVLQLNPCRTGKIKSLQNNQDVSFENIQWSIDPGADLSQYKMDVTVIDTKDGSQSKLGGETVDMDCTLVSETVLLKMKKQEQKGEKSSNEERKMNDSLEDMFDRTTHEEYESCLADSFSQAADEEEELSTATKKLHTHGDKQDKVKQKAFVEPYFKGDERETSLQNFPHIEVVRKKEERRKLLGHTCKECEIYYADMPAEEREKKLASCSRHRFRYIPPNTPENFWEVGFPSTQTCMERGYIKEDLDPCPRPKRRQPYNAIFSPKGKEQKT
